The DeepSol protein solubility set

Assay: soluble on expression in E. coli; label from the status in PepcDB or PDB records

Sequence | soluble on expression in E. coli
MLIDTDFFLSNRSDSLVLDVRSPEEYRRGHIPGAESFPLFSDAERAEVGTLYVRHSRQAAVERGLEFVGPRMAEMVREARSLAAGRDIILYCWRGGMRSESVAWLLSVAGLRIRRLRGGYKAYRRHFPDILKLYPWRFIVLGGYTGSGKTPILNELTQMGEQVIDLEGLAHHKGSAFGALGQEQQPTTEHFMNLLHDALSACDPNRPIWVESESKTIGRVFLPDDFYKVMRQAPLIELSVPRPVRIAHIAKEYGVYDAEALANSFEHIARRMGGAATTQAITALKEGRLEEAVSLALDYYDKAYAHSLAEFRESSSARLAVETDTPHETAIKLLELSHIKGLQS | not soluble
MVQESIISSFRGKLENDPSKSTSLATVETLLEVLDRSRATTVAEFQNELNQVVAALEKTDYSSTSIRSAADLFTRFTSLAPAALLDQEDFSQVLDLYRQRARSFIKNVRGSRAKISKCARLFFTHHMNILTHSYSKVVLETILDAHKSGYHLHVWVTESQPDASGKLVFEELKKNGVPTTLVLDSCVGYVMERIQAVLVGAEGVMETGGIINKIGTVNVCIIAKSRHVPVYVCAETIKFVREFPLNQADIPQEFKYRTSVIERNNLELEHPDVDYTAPEFLTLIITDVGAMKPEAVGEELIKMYI | not soluble
MVDPPGNDDDHGDLDALDFSAAHTNEASPLDALDDYAPVQTDDAEGDLDALHALTERDEEPELELFTVTNPQGSVSVSTLMDGRIQHVELTDKATSMSEAQLADEIFVIADLARQKARASQYTFMVENIGELTDEDAEGSALLREFVGMTLNLPTPEEAAAAEAEVFATRYDVDYTSRYKADD | soluble
MGSDKIHHHHHHMIVNLSRLGKSGTGMWQYSIKFLTALREIADVDAIICSKVHADYFEKLGYAVVTVPNIVSNTSKTSRLRPLVWYVYSYWLALRVLIKFGNKKLVCTTHHTIPLLRNQTITVHDIRPFYYPDSFIQKVYFRFLLKMSVKRCKHVLTVSYTVKDSIAKTYNVDSEKISVIYNSVNKSDFIQKKEKENYFLAVGASWPHKNIHSFIKNKKVWSDSYNLIIVCGRTDYAMSLQQMVVDLELKDKVTFLHEVSFNELKILYSKAYALVYPSIDEGFGIPPIEAMASNTPVIVSDIPVFHEVLTNGALYVNPDDEKSWQSAIKNIEQLPDAISRFNNYVARYDFDNMKQMVGNWLAESK | not soluble
MAHHHHHHMSDDIMNGDTLSEYRKIHKKNYEERIIKENELIEKQKTEELLNEKKKNEEIYRQLQIDKDREYSKQCYYEINNFQNIHERTYNDSDIRENYTQRLINPSAYSYIDNNMTQNLLDGDMGYTFSQRIRRFFLNK | not soluble
MKPPICRRMSLPPVLAKKEGERIQVPEGGELVCYRNQEDQHLFLKIEYSRETMIKLSSSVFCYARPTGLKEVSDELPELLGLPHSIPLTDSPPNFECLPEPLAHVSGCNSHFSMNHPPPLLSPLRGPVTEADEAMRTLSSHRELQKRLQNMSMRGELSPSGCLVDSCDTPAIRQIRNPQFT | not soluble
GPGSMMRCGNGSGPAAPSAASPRSHEGCLPHWMECSSASSSFVEDRVRCLVHPVGVTSLLPAPLQRILANVLRILQQERAQLKGQRPCRRHSRSLGTGVDAEVTECIVDAAQAPSLAAAADIFSAFVAAHPMDGLALLSSPVALVGAALAEVVTLGQVESCVIPMPELLSFLDAAISVGHPGAMHSVAICLREGTAGLQRDVTSSETWLRCAASSGYLPAMHELGETYERGAPASSKLPAGAAEDAADWGEAMQWYRRAAEAGYPPSQLNLGKLLLAASEHAQSAGSAAAPQVAHLFTEAKRWLHACAATGVEEAVRLVKRIEEQGAR | soluble
MGSDKIHHHHHHSCDNDDDESIAVPTPLQEAFSTRYPNVKNVKWETKAGYYVADFYDGYEASAWFTTDGNWHMTETDIPYTALPDPVKSAFEASDYKTWKRDDVDKLERQGIETVYVIEVENQNQEVDLYYSADGVLIKSIADTDDHENEHLPTTQLPAVMKTFIDGKYAGARIVEVDVEDDKNDWDFGFTEVDIIHFDSGLNRNVSKEVLFDKGREWYSTSWEVRRNELPTAVTNAISTEYAGYQMDDAEYFEMATETSYYQIELEGNNSPDIDIKVTADGTILK | not soluble
MPKEILMPELAESVVEGEILKWLVEEGDYLKKDQPFVEVMTDKVTVELPSPYEGVLLKKLAKEGEVVKVHAPIALIAEPGEAVEGVKEAPPVQAVEERSIVEPGLPAKEEKEDLSLFKPDPTQVAVKNPFLSGEKPQEGARPGRVLAVPAARKLARELGIPIEEVPGSGPLGRVRVEDVRAYAERRKAPPERPEEGPQVLPAGFPPPPKYAPPKGYEHLEERVPLRGIRRTIAQGLWQSHLYTVRTLNVDEADLTELVRLRERLKPQAEAQGVKLTYLPFIVKAVVRALKKFPMLNTSLDEERQEIVYKRYYHIGLAVATERGLIVPVVRDADRKSVLELAQEIAELSQKAREGRLAPEEVTGSTFTITNIGSVGATLSFPIIHLPDAAILGVHSIRKRPWVMPDGSIRPRDIMFLSLSFDHRLVDGAEAAMFTREVIRLLENPDLLLLEM | soluble
DLADRFAELERRYDARLGVYVPATGTTAAIEYRADERFAFCSTFKAPLVAAVLHQNPLTHLDKLITYTSDDIRSISPVAQQHVQTGMTIGQLCDAAIRYSDGTAANLLLADLGGPGGGTAAFTGYLRSLGDTVSRLDAEEPELNRDPPGDERDTTTPHAIALVLQQLVLGNALPPDKRALLTDWMARNTTGAKRIRAGFPADWKVIDKTGTGDYGRANDIAVVWSPTGVPYVVAVMSDRAGGGYDAEPREALLAEAATCVAGVLA | soluble
VTVRMDPQRFDELVSDALDLIPPELADAMDNVVVLVANRHPQHENLLGQYEGVALTERGSDYAGSLPDAITIYREALLDACDSEDEVVDQVAITVIHEVAHHFGIDDERLDQLGWRDEPAPGRGNPDLSAPDAMNGP | soluble
MGHHHHHHSHMEKCSVGGLELTEQTPALLGNMAMATSLMDIGDSFGHPACPLVSRSRNSPVEDDDDDDDVVFIESIQPPSISAPAIADQRNFIFASSKNEKPQGNYSVIPPSSRDLASQKGNISETIVIDDEEDIETNGGAEKKSSCFIEWGLPGTKNKTNDLDFSTSSLSRSKTKTGVRPFNPGRMNVAGDLFQNGEFATHHSPEMHLQRRLMSFFQ | soluble
MTLTSDDLRQIAALTLAHYDDNAVSFEVGTRDHDVSQNIAALLRHIQGDPPYAILDFGCGPGRDLKTFAALGHAAVGLDGAAHFVAMAHQATGCEVWQQDFLRLALPAGRFDGIFANASLFHVPTQELPRVLGELRDTLKPGGVLFCSNPRGGNEEGWSRGRYGVWHDWESWRALLEAAGFQALEHYYRPAGLPREQQQWLASVWRRLEHHHHHH | soluble
MSLNPMIAKQKPNGNIQCLVCNAEIKPKIWTAHVNGKKHRDSIEKLKTSAQKRGKESSTRNTDEPPNKKQKEVPNQGPTTLPTDFFDDESTPFRKDDSKTATVGHNSNLIEGVPAGFFDDKRLDGNVRETRERNAELDAEYERWKEEIGEEQVELDTKAEELEAAVQRELELERIDEQMAALKKLNDMEIQKEKRLNQARERRLKREEPEEEEDDDGEDIDLDALDWRAKNIFA | not soluble
MQTQQERISTGVKGLDELIEGGLIPGRVYLITGPPGSGKTTFGMQFLLEGARRGEKVAYISLIHKPEEVVRDMVRFDPSVYVYVNNWRLILYDLGPILWRESTKVPTWRSVLSRIREITENEKITRLVIDPLTAIDFPLQDPVEKRVELAKFVRSLENLGVTTYLIAEMVELDKYSEEHYLVSGIIMLHYFMHEGRMIRAIQIFKMRGTKHDPNLKLLKFTDQGLVVYNKSPFEVV | soluble
MLRLEEDEPSPGICDQLHEIVRSIGLLCYVACPPIPSEIIRKLAFHPPDKGATYRIELKSDPEKDLESVRDCHDEPVQLVVRDRVHPEVKVFSVTTSEDSHLVCVKCSPNCYSKNPEVANQVVLFCQSSSADLGSFLQPNSMNFSTFANLFETDVYAFDYSGYGFSSGTQSEKNMYADVRAVYEHILKTRPDKKIVVIGYSIGTTAAVDLAASNPDRLVGVVLIAPLTSALRMFCNNPDKETTCIDKICHINTRVLICHGDHDQRIPMTHGMALYENLKNPVPPLIVHGANHHSIISGEYIEVFTRIASFMRNETLLSCRANQIESSSSKKFKHE | not soluble
MGSDKIHHHHHHSTVAIALDCKGLGSPIPGTAPLCKDLTLMATGNKPSAAFVKNTRAAYGSVLQGYHNQVKPHVAPVQAAVSKKWKQFAKSDVGGKVEKIAMNIHAWIVDKWVKIQRFVQQTWNNVAAWWKKNGQKQFGPALEGFVLGVKMVFQVVADALRSVGALLVHFFARAKTFFVAFADGGFNAAMNTLNH | not soluble
MTKEEFIKQKEQRKTFLVIAEEEGDSITPISLYRRMKGKKKFLLESSQLHQDKGRYSYLGCNPYGEVKSVGTEVERTIYGRAEKLQSNVLQVLEEIIAPSQVDSPFPFCGGAVGYIGYDVIRQYENIGADLHDPLNIPEVHLLLYREFIVYDHLRQKLSFVYVCREDDSADYEEVYERLRVYKEEVLQGEEAEVTEIRSTLSFTSSITEREFCVMVETAKEHIGAGDIFQVVLSQRLQSECIGDPFALYRKLRIANPSPYMFYIDFQDYVVLGSSPESLLSVREDKVMTNPIAGTRPRGKTKEEDTEIEKELLENEKERAEHMMLVDLGRNDIGRVSEIGSVTIDKYMKVEKYSHVMHIVSEVYGTLRKQMSGFDALAYCLPAGTVSGAPKIRAMEIINELENEKRNVYAGAVGYVSFSGNLDMALAIRTMVVKDEKAYVQAGAGIVYDSDPVAEYEETLNKARALLEVMK | not soluble
MINHLSAIDDIADAEQIRVLFYASNRMVHAPLNKVLDLIKNDTQRDLLSALTQYQEATEQRIETLQKNLDALRLQVSLSTHNLKK | not soluble
MGSDKIHHHHHHMAAGRDTALLMMNLMNAPVPLSPALELALPVDTAVVGVGYFGSLHALCYSRLPGSRLQALIDPDPITQFLAEHLGVPWFPGVAELPSTIRAVSVATPVAMHFGLTRSLLQQGLDVLLEKPIAETAAQATELRMVAEANQCILQIGHIERFNPAYTAGGTLLPFARTVRSVRTTRHPPRSSALDVVIDLMIHDLDLILHSLDSSVVELRASGRSCGLTAIDEAEVELTFSNGCRVYLDAHWGRDTEQDARCMVAELENDETWVIDFRRRMTYRKEPGSSTGPLPADGHTLPFPMQRIQEDTLSLQLAAFLDACRNRSLPRVTPAEGNAALELAHCIRQQILRPCP | not soluble
MGSDKIHHHHHHMPLLPQPAGSVTTGRYTFAAAQVHAQTLTVCIVCNNTLYPAGSAVMSRVNVSLLQSGMILSEDVTDSNGRKLLCAGDAITEKHLRILKIWGVAEVDVEGIEPADAARSALDGLDPLRVEAAAARATARFALNDLQYEPVCMLMQCSVAALAKGADPVAPLPDYSVLPAAPMPSAPPALADMLRDDTRLGSLPPVFHRLVDVVNDPRSSATDMAEVIANDTDLSARLLRLVNSTFYGLRAKVDTITRAVTIIGSNQLVSLAMGAVMTTFFKGLPNSIVDMRSFWEHSVACGVAARLLASLHRMPNTERFFVAGLLHDIGRLAVYRLLPEHSLYMLTESRRRGISMRAMEREVLGFSHDRLGGRLLKEWRCPVSLERNVALHHTPGSGHGGLESAIINVADILAHTLEFGTSGEVLVPRLEQAVWDALALPAGTLEQAAAQMDYQVHEIIRFFELDE | not soluble
